Data on one substance can be found in article PMC11392403.

This assay has as its target recombinant Fasciola hepatica enolase (rFhENO) (Fasciola hepatica) (UniProt Q27655). The experiment in a line: SEC; Superdex 75 10/300 GL, 0.4 mL/min, 100 μg rFhENO injected; markers carbonic anhydrase 29 kDa, BSA 66 kDa, alcohol dehydrogenase 150 kDa; dimer to monomers. A general note: SEC sorts molecules by how far they enter the pores of the column.

For orientation: stoichiometry N means the number of molecules, sites or subunits per partner or assembly. As to “recombinant Fasciola hepatica enolase (rFhENO) (from UniProt Q27655 1-431) (enzyme)”, the percent of the protein eluting in the homodimeric form is 86.5% and the stoichiometry N turned out to be 2.
